Molecular target: T1, Wild-type glucocorticoid receptor, Myc-DDK tagged NR3C1 (Origene catalog # RC220189), substrate of the CASP1 enzymatic assay
T1 chain: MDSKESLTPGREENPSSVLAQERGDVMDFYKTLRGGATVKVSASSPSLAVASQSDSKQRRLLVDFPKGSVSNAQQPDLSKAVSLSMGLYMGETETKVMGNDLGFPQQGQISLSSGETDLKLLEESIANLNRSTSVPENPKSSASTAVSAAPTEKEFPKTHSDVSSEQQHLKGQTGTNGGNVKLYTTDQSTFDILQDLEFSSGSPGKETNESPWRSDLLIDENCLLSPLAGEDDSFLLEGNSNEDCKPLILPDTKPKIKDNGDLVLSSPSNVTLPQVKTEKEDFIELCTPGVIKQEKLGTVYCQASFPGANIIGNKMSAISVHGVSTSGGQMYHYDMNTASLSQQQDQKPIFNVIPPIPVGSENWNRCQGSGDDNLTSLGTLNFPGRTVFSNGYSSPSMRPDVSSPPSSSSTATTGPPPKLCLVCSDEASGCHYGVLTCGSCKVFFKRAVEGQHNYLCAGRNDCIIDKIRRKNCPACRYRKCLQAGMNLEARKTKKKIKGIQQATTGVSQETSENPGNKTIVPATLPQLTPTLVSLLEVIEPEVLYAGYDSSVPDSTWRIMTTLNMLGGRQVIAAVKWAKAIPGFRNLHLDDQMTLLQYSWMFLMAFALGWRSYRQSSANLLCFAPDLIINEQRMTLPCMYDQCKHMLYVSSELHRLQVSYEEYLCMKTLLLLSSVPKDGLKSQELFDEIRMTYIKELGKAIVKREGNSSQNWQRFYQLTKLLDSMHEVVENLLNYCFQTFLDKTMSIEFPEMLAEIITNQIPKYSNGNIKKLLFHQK

B1: Recombinant human CASP1 (Enzo Life Sciences CASP1 assay kit for drug discovery, catalog number BML-AK701-0001) (protein)
chain: NPAMPTSSGSEGNVKLCSLEEAQRIWKQKSAEIYPIMDKSSRTRLALIICNEEFDSIPRRTGAEVDITGMTMLLQNLGYSVDVKKNLTASDMTTELEAFAHRPEHKTSDSTFLVFMSHGIREGICGKKHSEQVPDILQLNAIFNMLNTKNCPSLKDKPKVIIIQACRGDSPGVVWFKDSVGVSGNLSLPTTEEFEDDAIKKAHIEKDFIAFCSSTPDNVSWRHPTMGSVFIGRLIEHMQEYACSCDVEEIFRKVRFSFEQPDGRAQMPTTERVTLTRCFYLFPGH
cleavage of GR in CASP1 enzymatic assay (western blot): enzymatic assays were performed that revealed glucocorticoid receptor (NR3C1) cleavage by recombinant CASP1

Reference: US20160230173A1
